The target of assay [1] is T1, CD33 expressed on MV4-11 human AML cells (human, UniProt P20138 18-364).
T1 construct: whole, on cells; also called cell-expressed CD33
Description: flow cytometry on MV4-11 cells, anti-human IgG secondary. The text has this:
Human AML cell line MV4-11, expressing CD33 was used to assay the binding of TriNKETs to the tumor associated antigen.
On the technique in general: A flow cytometer gives signals particle by particle.

For assay [2], the target named is T2, Tyrp-1 on B16F10 melanoma cells (UniProt P07147 25-537, limits assumed).
T2 construct: whole, on cells; also called Tyrp-1-positive B16F10 melanoma cells; B16F10 tumor cells
Description: flow cytometry on B16F10 tumor cells, 60 ug/mL with four-fold dilutions, goat anti-mouse PE secondary (FIG. 50A). As to the method:
60 μg/mL of indicated antibodies with four-fold dilutions were added to 2×10⁵ B16F10 tumor cells (FIG. 50A) or EL4-mNKG2D cells (FIG. 50B). Binding was assessed using a goat anti-mouse PE secondary antibody followed by flow cytometric analysis.

T1 sequence (P20138 18-364): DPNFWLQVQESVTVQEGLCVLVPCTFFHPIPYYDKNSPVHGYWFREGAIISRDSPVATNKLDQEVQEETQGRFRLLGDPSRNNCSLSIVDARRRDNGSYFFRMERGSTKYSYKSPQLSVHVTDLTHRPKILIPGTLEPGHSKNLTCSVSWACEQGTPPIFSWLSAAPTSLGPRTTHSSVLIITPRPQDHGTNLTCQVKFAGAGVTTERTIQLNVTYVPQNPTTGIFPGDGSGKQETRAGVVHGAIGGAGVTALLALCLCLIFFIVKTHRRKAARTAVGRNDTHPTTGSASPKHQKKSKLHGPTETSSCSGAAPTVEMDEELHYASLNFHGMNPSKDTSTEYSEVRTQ

B1: CD33-TriNKET-C26 (ADI-28226 and a CD33-binding domain) (bispecific antibody, V domains shown)
VH 1: QVQLQQWGAGLLKPSETLSLTCAVYGGSFSGYYWSWIRQPPGKGLEWIGEIDHSGSTNYNPSLKSRVTISVDTSKNQFSLKLSSVTAADTAVYYCARARGPWSFDPWGQGTLVTVSS
VL 1: DIQMTQSPSTLSASVGDRVTITCRASQSISSWLAWYQQKPGKAPKLLIYKASSLESGVPSRFSGSGSGTEFTLTISSLQPDDFATYYCQQYGSFPITFGGGTKVEIK
VH 2: QVQLVQSGAEVKKPGASVKVSCKASGYTFTDYVVHWVRQAPGQGLEWMGYINPYNDGTKYNEKFKGRVTMTRDTSISTAYMELSRLRSDDTAVYYCARDYRYEVYGMDYWGQGTLVTVSS
VL 2: DIVLTQSPASLAVSPGQRATITCTASSSVNYIHWYQQKPGQPPKLLIYDTSKVASGVPARFSGSGSGTDFTLTINPVEANDTANYYCQQWRSYPLTFGQGTKLEIK
notes: also called C26-TriNKET-CD33; CD33-targeting TriNKET
Turning to B1, in assay [1], the binding result was “binds”.

B2: CD33-TriNKET-F04 (ADI-29404 and a CD33-binding domain) (bispecific antibody, V domains shown)
VH 1: QVQLQQWGAGLLKPSETLSLTCAVYGGSFSGYYWSWIRQPPGKGLEWIGEIDHSGSTNYNPSLKSRVTISVDTSKNQFSLKLSSVTAADTAVYYCARARGPWSFDPWGQGTLVTVSS
VL 1: DIQMTQSPSTLSASVGDRVTITCRASQSISSWLAWYQQKPGKAPKLLIYKASSLESGVPSRFSGSGSGTEFTLTISSLQPDDFATYYCEQYDSYPTFGGGTKVEIK
VH 2: QVQLVQSGAEVKKPGASVKVSCKASGYTFTDYVVHWVRQAPGQGLEWMGYINPYNDGTKYNEKFKGRVTMTRDTSISTAYMELSRLRSDDTAVYYCARDYRYEVYGMDYWGQGTLVTVSS
VL 2: DIVLTQSPASLAVSPGQRATITCTASSSVNYIHWYQQKPGQPPKLLIYDTSKVASGVPARFSGSGSGTDFTLTINPVEANDTANYYCQQWRSYPLTFGQGTKLEIK
notes: also called F04-TriNKET-CD33; CD33-targeting TriNKET
Turning to B2, the binding result in assay [1] is reported as “binds”.

B3: mcFAE-C26.99 TriNKET (bispecific antibody, mouse IgG2c)
light 1: DIQMTQSPSTLSASVGDRVTITCRASQSISSWLAWYQQKPGKAPKLLIYKASSLESGVPSRFSGSGSGTEFTLTISSLQPDDFATYYCQQYGSFPITFGGGTKVEIKRADAAPTVSIFPPSSEQLTSGGASVVCFLNNFYPKDINVKWKIDGSERQNGVLNSWTDQDSKDSTYSMSSTLTLTKDEYERHNSYTCEATHKTSTSPIVKSFNRNEC
heavy 1: QVQLQQWGAGLLKPSETLSLTCAVYGGSFSGYYWSWIRQPPGKGLEWIGEIDHSGSTNYNPSLKSRVTISVDTSKNQFSLKLSSVTAADTAVYYCARARGPWSFDPWGQGTLVTVSSAKTTAPSVYPLAPVCGGTTGSSVTLGCLVKGYFPEPVTLTWNSGSLSSGVHTFPALLQSGLYTLSSSVTVTSNTWPSQTITCNVAHPASSTKVDKKIEPRVPITQNPCPPLKECPPCAAPDLLGGPSVFIFPPKIKDVLMISLSPMVTCVVVDVSEDDPDVQISWFVNNVEVHTAQTQTHREDYNSTLRVVSALPIQHQDWMSGKEFKCKVNNRALPSPIEKTISKPRGPVRAPQVYVLPPPAEEMTKKEFSLTCMIKGFLPAEIAVDWTSNGRTEQNYKNTATVLDSDGSYFMYSRLRVQKSTWERGSLFACSVVHEGLHNHLTTKTISRSLGK
light 2: DIQMSQSPASLSASVGETVTITCRASGNIYNYLAWYQQKQGKSPHLLVYDAKTLADGVPSRFSGSGSGTQYSLKISSLQTEDSGNYYCQHFWSLPFTFGSGTKLEIKRADAAPTVSIFPPSSEQLTSGGASVVCFLNNFYPKDINVKWKIDGSERQNGVLNSWTDQDSKDSTYSMSSTLTLTKDEYERHNSYTCEATHKTSTSPIVKSFNRNEC
heavy 2: EVQLQQSGAELVRPGALVKLSCKTSGFNIKDYFLHWVRQRPDQGLEWIGWINPDNGNTVYDPKFQGTASLTADTSSNTVYLQLSGLTSEDTAVYFCTRRDYTYEKAALDYWGQGASVIVSSAKTTAPSVYPLAPVCGGTTGSSVTLGCLVKGYFPEPVTLTWNSGSLSSGVHTFPALLQSGLYTLSSSVTVTSNTWPSQTITCNVAHPASSTKVDKKIEPRVPITQNPCPPLKECPPCAAPDLLGGPSVFIFPPKIKDVLMISLSPMVTCVVVDVSEDDPDVQISWFVNNVEVHTAQTQTHREDYNSTLRVVSALPIQHQDWMSGKEFKCKVNNRALPSPIEKTISKPRGPVRAPQVYVLPPPAEEMTKKEFSLTCMITGFLPAEIAVDWTSNGRTEQNYKNTATVLDSDGSYLMYSKLTVQKSTWERGSLFACSVVHEGLHNHLTTKTISRSLGK
notes: also called murine cFAE-C26.99 TriNKET; TA99 TriNKET
B3: the binding result in assay [2] is “binds”.

The record behind these values is US20200095327A1 (DRAGONFLY THERAPEUTICS, published 2020).
